In PMC2728795 one finds percent bound data, which are given here for one substance.

In this test the target is F-actin (freshly polymerized actin) (UniProt P68135). Description: co-sedimentation.

“GST(541–605,Δ25)PRG (from UniProt O15085 541-605) (domain or fragment)”: the percent bound at 5 µM F-actin came out at 10%.
